Measured values as given in PMC9526450 (Nature structural & molecular biology, 2022).

Molecular target: T1, Strep-tagged WT UBE2O from Expi293F cells (human, UniProt Q9C0C9 1-1292)
T1 sequence (looked up): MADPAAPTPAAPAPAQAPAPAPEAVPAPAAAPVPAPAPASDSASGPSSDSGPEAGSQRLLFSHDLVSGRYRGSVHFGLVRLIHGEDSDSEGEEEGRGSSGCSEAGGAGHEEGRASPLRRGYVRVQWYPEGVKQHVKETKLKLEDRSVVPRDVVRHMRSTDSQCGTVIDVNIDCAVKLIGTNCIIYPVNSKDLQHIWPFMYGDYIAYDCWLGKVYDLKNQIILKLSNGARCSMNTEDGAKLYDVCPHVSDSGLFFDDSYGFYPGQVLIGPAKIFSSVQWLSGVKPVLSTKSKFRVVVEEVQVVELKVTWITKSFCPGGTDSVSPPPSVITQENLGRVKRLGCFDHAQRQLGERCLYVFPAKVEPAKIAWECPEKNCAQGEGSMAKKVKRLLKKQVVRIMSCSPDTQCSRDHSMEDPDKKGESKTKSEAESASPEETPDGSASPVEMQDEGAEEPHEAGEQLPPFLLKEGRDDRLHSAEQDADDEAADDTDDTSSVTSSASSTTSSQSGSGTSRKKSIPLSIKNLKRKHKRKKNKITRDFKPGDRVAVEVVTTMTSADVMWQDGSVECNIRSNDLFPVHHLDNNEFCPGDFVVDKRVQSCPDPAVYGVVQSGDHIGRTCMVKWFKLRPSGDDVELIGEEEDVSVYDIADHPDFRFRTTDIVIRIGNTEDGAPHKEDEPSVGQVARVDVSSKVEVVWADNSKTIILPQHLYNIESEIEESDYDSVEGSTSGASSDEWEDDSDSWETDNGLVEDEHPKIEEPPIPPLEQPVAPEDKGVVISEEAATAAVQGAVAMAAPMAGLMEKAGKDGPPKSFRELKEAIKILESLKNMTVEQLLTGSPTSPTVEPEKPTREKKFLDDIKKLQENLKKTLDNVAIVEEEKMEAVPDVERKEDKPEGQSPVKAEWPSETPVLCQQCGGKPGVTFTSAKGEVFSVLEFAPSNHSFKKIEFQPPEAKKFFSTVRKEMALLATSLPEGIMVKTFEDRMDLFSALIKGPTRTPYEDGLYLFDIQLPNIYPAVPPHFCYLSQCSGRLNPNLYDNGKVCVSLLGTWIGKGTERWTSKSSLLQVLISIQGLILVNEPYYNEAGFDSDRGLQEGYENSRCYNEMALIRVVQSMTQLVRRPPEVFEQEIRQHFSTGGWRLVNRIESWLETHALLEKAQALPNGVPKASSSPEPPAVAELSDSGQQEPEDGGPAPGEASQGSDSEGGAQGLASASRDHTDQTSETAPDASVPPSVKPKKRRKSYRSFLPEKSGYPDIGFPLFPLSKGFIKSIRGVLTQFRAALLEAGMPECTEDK
Assay: SEC

binding result: binds
B1: purified Strep-tagged NAP1L1 (natural protein, human, UniProt P55209 1-391, looked up)
chain: MADIDNKEQSELDQDLDDVEEVEEEETGEETKLKARQLTVQMMQNPQILAALQERLDGLVETPTGYIESLPRVVKRRVNALKNLQVKCAQIEAKFYEEVHDLERKYAVLYQPLFDKRFEIINAIYEPTEEECEWKPDEEDEISEELKEKAKIEDEKKDEEKEDPKGIPEFWLTVFKNVDLLSDMVQEHDEPILKHLKDIKVKFSDAGQPMSFVLEFHFEPNEYFTNEVLTKTYRMRSEPDDSDPFSFDGPEIMGCTGCQIDWKKGKNVTLKTIKKKQKHKGRGTVRTVTKTVSNDSFFNFFAPPEVPESGDLDDDAEAILAADFEIGHFLRERIIPRSVLYFTGEAIEDDDDDYDEEGEEADEEGEEEGDEENDPDYDPKKDQNPAECKQQ
